Among the data in patent US20140178935A1 (AVEO PHARMACEUTICALS, published 2014) are Kd, koff and kon values, retold here.

The target of experiment [1] is T1, recombinant human HGF (R&D Systems, Catalog No. 294-HGN-025) (human, UniProt P14210 32-728).
T1 construct: Mature HGF is a disulfide-linked heterodimer of alpha and beta chain cut from one precursor; also called rhHGF (R&D Systems); rhHGF
The experiment can be described thus: SPR, captured antibody, HGF injected, 25 C. Here is the method:
Mouse anti-human immunoglobulins (Jackson Labs, Catalog No. 209-005) or rabbit anti-mouse immunoglobulins (BIAcore, Catalog No. BR-1005-14) were immobilized on carboxymethylated dextran CM4 sensor chips (BIAcore, Catalog No. BR-1006-68) by amine coupling (BIAcore, Catalog No. BR-1000-50) using a standard coupling protocol according to manufacturer's instructions. […] The analyses were performed at 25° C. and 37° C. using PBS (GIBCO, Catalog No. 14040-133) containing 0.05% surfactant P20 (BIAcore, Catalog No. BR-1000-54), and 2 mg/mL BSA (EMD, Catalog No. 2930) as running buffer.
The antibodies were captured in an individual flow cell at a flow rate of […]. Injection time was variable for each antibody to yield approximately 20 RU of antibody captured for each cycle. […] The dissociation phase was monitored for 15 or 90 minutes, depending on concentration. The surface of mouse anti-human immunoglobulins sensor chips was then regenerated with 10 mM Glycine-HCl, pH 2.2 (BIAcore, Catalog No. BR-1003-54) injected for 3 minutes at a flow rate of 60 μL/min before another cycle was initiated. The surface of rabbit anti-mouse immunoglobulins sensor chips was regenerated with 10 mM Glycine-HCl, pH 1.7 (BIAcore, Catalog No. BR-1003-54) injected for 3 minutes at a flow rate of 60 μL/min before another cycle was initiated.
Kinetic parameters were determined using the kinetic function of the BIAevaluation software with reference subtraction.

The target in experiment [2] is T1, recombinant human HGF (R&D Systems, …). Nature of the experiment: SPR, captured antibody, HGF injected, 25 C. Here is the method: Mouse anti-human immunoglobulins (Jackson Labs, Catalog No. 209-005) were immobilized on carboxymethylated dextran CM4 sensor chips (BIAcore, Catalog No. BR-1006-68) by amine coupling (BIAcore, Catalog No. BR-1000-50) using a standard coupling protocol according to manufacturer's instructions. The analyses were performed at 25° C. using PBS (GIBCO, Catalog No. 14040-133) containing 0.05% surfactant P20 (BIAcore, Catalog No. BR-1000-54), and 2 mg/mL BSA (EMD, Catalog No. 2930).
(§1) The antibodies were captured in an individual flow cell at a flow rate of 10 μL/min. Injection time was variable for each antibody to yield approximately 20 RU of antibody captured for each cycle. […] The dissociation phase was monitored for 15 or 90 minutes, depending on concentration. The surface then was regenerated with 10 mM Glycine-HCl, pH 2.2 (BIAcore, Catalog No. BR-1003-54) injected for 3 minutes at a flow rate of 60 μL/min before another cycle was initiated.
Kinetic parameters were determined using the kinetic function of the BIAevalutation™ software with reference subtraction.
This is another data set of the same source. For orientation: In SPR one partner is held on a chip, and binding of the other changes the refractive index at the surface.

Experiment [3] shares this target. The experiment can be described thus: SPR (BIAcore T100), antibody captured on mouse anti-human immunoglobulin CM4 chip, HGF 1.88, 3.75 and 7.5 nM injected, 25 C; three independent experiments. As to the method: Antigen-binding affinity and kinetics of interaction were assessed by surface plasmon resonance technology using a BIAcore T100 instrument. Mouse anti-human immunoglobulins (Jackson ImmunoResearch Labs, 209-005-098) were immobilized on carboxymethylated dextran CM4 sensor chips (BIAcore, Catalog No. BR-1005-34) by amine coupling (BIAcore, Catalog No. BR-1000-50) using a standard coupling protocol according to manufacturer's recommendations. The analyses were performed at 25° C. using PBS (GIBCO, Catalog No. 14040-133) containing 0.05% surfactant P20 (BIAcore, Catalog No. BR-1000-54), 2 mg/mL BSA (EMD, Catalog No. 2930) and 10 mg/mL CM-Dextran Sodium salt (Fluka, Catalog No. 86524) as running buffer.
as §1, with “on” for “in an”, “2.0” for “2.2”, “BR-1003-55)” for “BR-1003-54)”, “initiated. […] Determination of kinetic parameters was achieved using the kinetic function of the BIAevalutation software with reference subtraction.” for “initiated.”

T1 sequence (P14210 32-728 limits assumed): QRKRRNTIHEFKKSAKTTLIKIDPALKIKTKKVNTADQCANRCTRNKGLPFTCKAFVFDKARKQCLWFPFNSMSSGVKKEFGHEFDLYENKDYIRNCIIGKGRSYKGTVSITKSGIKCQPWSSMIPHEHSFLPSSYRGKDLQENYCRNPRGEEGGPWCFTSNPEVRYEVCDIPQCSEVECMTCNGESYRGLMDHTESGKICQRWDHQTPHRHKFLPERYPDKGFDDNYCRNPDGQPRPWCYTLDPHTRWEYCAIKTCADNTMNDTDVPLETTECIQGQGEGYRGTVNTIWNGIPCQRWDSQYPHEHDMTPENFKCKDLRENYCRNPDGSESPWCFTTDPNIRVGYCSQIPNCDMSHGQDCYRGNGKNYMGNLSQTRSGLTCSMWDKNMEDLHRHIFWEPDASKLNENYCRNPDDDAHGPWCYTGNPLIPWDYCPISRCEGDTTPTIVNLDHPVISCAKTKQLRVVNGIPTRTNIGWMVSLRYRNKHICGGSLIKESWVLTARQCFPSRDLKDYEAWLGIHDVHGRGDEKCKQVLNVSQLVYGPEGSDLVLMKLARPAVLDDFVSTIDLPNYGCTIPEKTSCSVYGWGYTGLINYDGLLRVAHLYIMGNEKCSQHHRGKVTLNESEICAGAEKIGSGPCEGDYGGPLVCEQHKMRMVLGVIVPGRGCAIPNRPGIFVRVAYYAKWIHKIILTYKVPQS

B1: sh2B8-9 (G1m(17,1)) = hu2B8 Hv5-51.1 + IgG1 constant region (G1m(17,1) allotype) plus hu2B8 Kv1-39.1 + Kappa constant region (Km(3) allotype, allele 2) (antibody)
heavy: not shown
light: DIQMTQSPSSLSASVGDRVTITCKASENVVSYVSWYQQKPGKAPKLLIYGASNRNTGVPSRFSGSGSGTDFTLTISSLQPEDFATYYCGQSYNYPYTFGQGTKLEIKRTVAAPSVFIFPPSDEQLKSGTASVVCLLNNFYPREAKVQWKVDNALQSGNSQESVTEQDSKDSTYSLSSTLTLSKADYEKHKVYACEVTHQGLSSPVTKSFNRGEC
Turning to B1, in experiment [1], the Kd was determined as 8.1 pM, the koff was 1.7e-05 s⁻¹ and the kon was 2e+06 M⁻¹ s⁻¹. In addition, in experiment [2], the Kd came out at 8.1 pM, the koff amounted to 1.7e-05 s⁻¹ and the kon amounted to 2e+06 M⁻¹ s⁻¹. For the same molecule, in experiment [3], the Kd amounted to 8.1 pM, the koff is 1.7e-05 s⁻¹ and the kon stood at 2e+06 M⁻¹ s⁻¹.

Usually Kd stands for a measure of binding affinity in units of concentration. Usually koff stands for the rate constant with which the complex falls apart. As usually defined, the kon is the rate constant with which the complex forms.
